Source: patent publication US20200079850A1 (SUTRO BIOPHARMA, published 2020)

T1: human LAG3-Fc (R&D Systems #2319-L3) (human, UniProt P18627 23-450)
T1 construct: Bought protein; also called Human LAG3 (Biacore)
T1 sequence: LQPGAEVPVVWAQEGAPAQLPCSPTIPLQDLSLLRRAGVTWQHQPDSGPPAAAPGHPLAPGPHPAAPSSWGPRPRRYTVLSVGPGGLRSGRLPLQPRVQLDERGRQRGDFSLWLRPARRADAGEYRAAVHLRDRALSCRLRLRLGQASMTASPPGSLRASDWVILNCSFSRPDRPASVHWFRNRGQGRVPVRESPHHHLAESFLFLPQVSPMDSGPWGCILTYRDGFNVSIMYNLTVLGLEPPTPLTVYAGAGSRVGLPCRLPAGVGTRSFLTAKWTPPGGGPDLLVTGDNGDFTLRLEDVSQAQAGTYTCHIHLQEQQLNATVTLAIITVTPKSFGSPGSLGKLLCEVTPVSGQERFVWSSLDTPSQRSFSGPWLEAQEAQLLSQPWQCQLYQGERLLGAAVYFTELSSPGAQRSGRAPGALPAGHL

T2: human LAG3 expressed on the cell surface (CHO-LAG3, 293T-LAG3 cells) (human, UniProt P18627 23-525)
T2 construct: Stably transfected CHO or HEK293T cells; also called Human LAG3 (CHO); Human LAG3 (293T)
T2 sequence: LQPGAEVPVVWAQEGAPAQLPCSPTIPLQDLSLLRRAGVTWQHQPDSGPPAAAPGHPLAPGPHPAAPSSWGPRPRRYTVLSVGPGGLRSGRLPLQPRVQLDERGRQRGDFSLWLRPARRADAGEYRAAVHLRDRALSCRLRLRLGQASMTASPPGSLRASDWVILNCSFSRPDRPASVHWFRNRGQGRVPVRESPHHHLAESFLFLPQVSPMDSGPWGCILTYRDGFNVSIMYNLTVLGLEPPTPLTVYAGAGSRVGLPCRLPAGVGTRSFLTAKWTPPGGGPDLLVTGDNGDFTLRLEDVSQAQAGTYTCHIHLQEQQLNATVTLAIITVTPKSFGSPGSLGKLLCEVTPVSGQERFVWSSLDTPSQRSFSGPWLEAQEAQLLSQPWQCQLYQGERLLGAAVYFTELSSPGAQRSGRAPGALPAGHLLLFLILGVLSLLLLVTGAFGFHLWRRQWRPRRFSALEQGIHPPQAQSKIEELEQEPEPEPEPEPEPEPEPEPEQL

T3: recombinant human LAG3 protein (rhLAG3), HIS-tagged (ACRO) or biotinylated (R&D Cat #2319-C3) (human, UniProt P18627 23-450, biotinylated in part of the assays)
T3 sequence: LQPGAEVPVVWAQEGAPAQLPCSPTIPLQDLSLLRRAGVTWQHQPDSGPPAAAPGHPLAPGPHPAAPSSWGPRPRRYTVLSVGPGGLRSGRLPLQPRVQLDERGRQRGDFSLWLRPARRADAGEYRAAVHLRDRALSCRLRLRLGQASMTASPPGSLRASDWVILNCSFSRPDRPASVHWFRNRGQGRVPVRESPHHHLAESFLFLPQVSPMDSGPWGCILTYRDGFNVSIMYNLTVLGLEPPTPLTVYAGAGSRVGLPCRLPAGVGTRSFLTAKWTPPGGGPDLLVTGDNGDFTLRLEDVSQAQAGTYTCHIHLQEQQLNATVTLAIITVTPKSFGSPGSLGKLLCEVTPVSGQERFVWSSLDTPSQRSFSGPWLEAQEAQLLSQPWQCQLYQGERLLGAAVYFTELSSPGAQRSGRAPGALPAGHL

B1: SRP1627-A11 (scFv, V domains shown)
VH: QVQLVQSGAEVKKPGSSVKVSCKASGFNINDYFMHWVRQAPGQGLEWIARIDPWNGDTEYAPKFQGRVTITADESTSTAYMELSSLRSEDTAVYYCGMSDALDYWGQGTLVTVSS
VL: DVVMTQSPLSLPVTLGQPASISCKSSQSLLDSDGKTYLNWFQQRPGQSPRRLIYLVSKLDSGVPDRFSGSGSGTDFTLKISRVEAEDVGVYYCWHGINFPQTFGQGTKVEIK
B2: SRP1627-B01 (scFv, V domains shown)
VH: QVQLVQSGAEVKKPGSSVKVSCKASGFNITDLYMHWVRQAPGQGLEWIARIDPWNGDTEYAPKFQGRATITADESTSTAYMELSSLRSEDTAVYYCIASEMVDYWGQGTLVTVSS
VL: DVVMTQSPLSLPVTLGQPASISCKSSQSLLDSDGKTYLNWFQQRPGQSPRRLIYLVSKLDSGVPDRFSGSGSGTDFTLKISRVEAEDVGVYYCSTYSHFPQTFGQGTKVEIK
B3: SRP1627-A02 (scFv, V domains shown)
VH: QVQLVQSGAEVKKPGSSVKVSCKASGFNINDYFMHWVRQAPGQGLEWIARIDPWNGDTEYAPKFQGRVTITADESTSTAYMELSSLRSEDTAVYYCGMSDALDYWGQGTLVTVSS
VL: DVVMTQSPLSLPVTLGQPASISCKSSQSLLDSDGKTYLNWFQQRPGQSPRRLIYLVSKLDSGVPDRFSGSGSGTDFTLKISRVEAEDVGVYYCSHGNPVPQTFGQGTKVEIK
B4: h5G11-2 (scFv, V domains shown)
VH: QVQLVQSGAEVKKPGSSVKVSCKASGFNIKDYYMHWVRQAPGQGLEWIAWIDPENGDTEYAPKFQGRVTITADESTSTAYMELSSLRSEDTAVYYCNAPDALDYWGQGTLVTVSS
VL: DVVMTQSPLSLPVTLGQPASISCKSSQSLLDSDGKTYLNWFQQRPGQSPRRLIYLVSKLDSGVPDRFSGSGSGTDFTLKISRVEAEDVGVYYCWQGSHFPQTFGQGTKVEIK
B5: SRP1496-B08 (antibody, V domains shown)
VH: EVQLVESGGGLVQPGGSLRLSCAASGFNINDTYIHWVRQAPGKGLEWVGIIDPYDGATDYADSVKGRFTISADTSKNTAYLQMNSLRAEDTAVYYCAREIFGFYWNPFDYWGQGTLVTVSS
VL: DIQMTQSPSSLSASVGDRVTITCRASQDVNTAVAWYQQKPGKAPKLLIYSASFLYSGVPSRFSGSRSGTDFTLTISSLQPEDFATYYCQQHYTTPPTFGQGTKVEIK
B6: SRP1496-A04 (antibody, V domains shown)
VH: EVQLVESGGGLVQPGGSLRLSCAASGFNINDTYIHWVRQAPGKGLEWVGIIDPYDGATDYADSVKGRFTISADTSKNTAYLQMNSLRAEDTAVYYCAREIFGFYWNPFDYWGQGTLVTVSS
VL: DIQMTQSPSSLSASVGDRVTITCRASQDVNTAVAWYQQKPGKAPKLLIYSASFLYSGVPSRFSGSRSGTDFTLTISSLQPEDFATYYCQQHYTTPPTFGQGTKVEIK
B7: SRP1496-A03 (antibody, V domains shown)
VH: EVQLVESGGGLVQPGGSLRLSCAASGFNINDTYIHWVRQAPGKGLEWVGIIDPYDGATDYADSVKGRFTISADTSKNTAYLQMNSLRAEDTAVYYCAREIFGFYWNPFDYWGQGTLVTVSS
VL: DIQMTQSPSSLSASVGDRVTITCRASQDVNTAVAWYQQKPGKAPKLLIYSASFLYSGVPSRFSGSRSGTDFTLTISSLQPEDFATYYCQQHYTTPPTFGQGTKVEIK
B8: SRP1648-E02 (antibody, V domains shown)
VH: EVQLVESGGGLVQPGGSLRLSCAASGFNINDNYIHWVRQAPGKGLEWVGIIDPYDGFTAYADSVKGRFTISADTSKNTAYLQMNSLRAEDTAVYYCARESIGFYLNPFDYWGQGTLVTVSS
VL: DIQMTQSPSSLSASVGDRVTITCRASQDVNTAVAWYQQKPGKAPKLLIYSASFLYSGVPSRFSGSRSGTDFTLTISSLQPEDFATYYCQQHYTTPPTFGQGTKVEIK
B9: SRP1648-B07 (antibody, V domains shown)
VH: EVQLVESGGGLVQPGGSLRLSCAASGFNIADTFIHWVRQAPGKGLEWVGIIDPYDGDTDYADSVKGRFTISADTSKNTAYLQMNSLRAEDTAVYYCAREILGFYWNPFDYWGQGTLVTVSS
VL: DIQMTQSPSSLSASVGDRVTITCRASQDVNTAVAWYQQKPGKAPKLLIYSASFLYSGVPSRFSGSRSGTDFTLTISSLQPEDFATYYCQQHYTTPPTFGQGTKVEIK
notes: IgG scaffold with human constant domains

Tests used:
[1] = target: T1, human LAG3-Fc (R&D Systems #2319-L3); assay: SPR (Biacore), antibody captured by anti-Flag, LAG3-Fc as analyte, 25 C
Protocol: Anti-Flag M2 IgG (Sigma-Aldrich # F9291) was immobilized onto a CMS chip (GE Life Sciences) using amine coupling chemistry (from Amine Coupling Kit, GE Life Sciences). The immobilization steps were carried out at a flow rate of 25 μL/min in 1×HBS-EP+ buffer (GE Life Sciences; 10×Stock diluted before use). The sensor surfaces were activated for 7 min with a mixture of NHS (0.05 M) and EDC (0.2 M). The Anti-Flag M2 IgG was injected over all 4 flow cells at a concentration of 25 μg/mL in 10 mM sodium acetate, pH 4.5, for 7 min. Ethanolamine (1 M, pH 8.5) was injected for 7 min to block any remaining activated groups. An average of 12,000 response units (RU) of capture antibody was immobilized on each flow cell.
Off-rate and kinetic binding experiments were performed at 25° C. using 1×HBS-EP+buffer. Test and control antibodies were injected over the Anti-Flag surface at concentrations of 5-10 μg/mL for 12 seconds at a flow rate of 10 μL/min on flow cells 2, 3 and 4, followed by a buffer wash for 30 seconds at the same flow rate. Kinetic characterization of antibody samples was carried out with a single concentration of antigen (for off-rate ranking) or a dilution series of antigen (for kinetic characterization) and 1 injection of 0 nM antigen. After capturing ligand (antibody) on the anti-Flag surface, the analyte (human LAG3-Fc, R&D Systems #2319-L3; or cynomolgus LAG3-Fc, accession # NC 022282.1) was bound at 50, 25, 12.5, 6.25, and 0 nM for 180 seconds, followed by a 600 second dissociation phase at a flow rate of 50 μl/min Between each ligand capture and analyte binding cycle, regeneration was carried out using 2 injections of 10 mM glycine pH 2.0 for 30 seconds at 30 μL/min, followed by a 30 second buffer wash step.
The data were fit with the Biacore T200 Evaluation software, using a 1:1 Langmuir binding model. KD (affinity, nM) was determined as a ratio of the kinetic rate constants calculated from the fits of the association and dissociation phases.

[2] = target: T2, human LAG3 expressed on the cell …; assay: flow cytometry, 293T cells expressing human LAG3
Protocol: LAG3 antibody variants were tested in a fluorescence-activated cell sorting (FACS) cell-binding assay. Chinese Hamster Ovary (CHO) cells or HEK293T cells stably expressing the human target molecule LAG3 on the cell surface (CHO-LAG3, 293T-LAG3) were used to screen for cell binders by flow cytometry. Parental CHO or 293T cells were used as a negative control to determine background-binding levels. Cells were cultured in RPMI with 10% FCS Penicillin/Streptomycin (or Pen/Strep) and glutamine (or Gln) and split every 3-4 days at 10⁵ cells/ml.
A mix of parental CHO cells and CHO-LAG3 cells (or 293T and 293T-LAG3 cells) was prepared as follows: Parental CHO cells were washed 2× in PBS then incubated in PBS containing 1 nM CellTrace™ Oregon Green488® (Life Technologies) at 37° C. for 30 minutes. […] Parental CHO cells and CHO-LAG3 cells were then mixed to obtain a 1:1 cell suspension and seeded at 100 μl per well on 96 well polypropylene plates. Plates were spun at 1500 rpm for 5 minutes and cell pellets were suspended in 50 μl FACS buffer containing 6-12 point dilutions of anti-LAG3 variants starting from concentrations of ˜100-200 nM antibody, dispensed using BioMekFX (Beckman Coulter). Cells were then incubated on ice for 1 hr, washed with FACS buffer and incubated for 1 hr on ice with 50 μl FACS buffer containing 2.5 μg/ml R-Phycoerythrin-conjugated Goat Anti-Human IgG (Jackson ImmunoResearch) or AF647-conjugated Goat Anti-mouse IgG (Life Technologies) dispensed using BioMekFX (Beckman Coulter). Cells were then washed 2× with FACS buffer and fixed for 10 minutes in 200 μl PBS with 2% PFA prior to fluorescence detection. Samples were acquired using a Beckton Dickinson LSRII FACS. Mean Fluorescence Intensity of LAG3 antibody binding was analyzed using Tree Star, Inc. FlowJo® software.

[3] = target: T3, recombinant human LAG3 protein …; assay: flow cytometry competition, rhLAG3 binding to Daudi cells; competitor MHCII
Protocol: DAUDI cells express high levels of Major Histocompatibility Class II (MHCII) molecules, a natural ligand for LAG3, on the cell surface. DAUDI cells were used to screen for antibodies that inhibit binding of HIS-tagged (ACRO) or biotinylated recombinant human LAG3 protein (rhLAG3) to MHCII expressed on the cell surface.
DAUDI cells were cultured in RPMI w/10% FCS Pen/Strep and Gln and split every 3-4 days at 10^5 cells/ml. Cells were washed 2× with FACS buffer (PBS w/2% FCS), […] at a final concentration of 1×10⁶ cells/ml and seeded at 100 μl per well on 96 well polypropylene plates. Plates were spun at 1500 rpm for 5 minutes and cell pellets were suspended in 50 μl FACS buffer containing 8 point 1:3 dilutions (2× concentrated) of anti-LAG3 antibody variants, starting from high concentration of −600 nM. 50 μl FACS buffer containing 10-20 μg/ml of the HIS-tagged rhLAG3 protein or 40 μg/ml of the biotinylated rhLAG3 protein were then added to the cells. Cell were then incubated in ice for 1 hr, washed with FACS buffer and incubated for 1 hr in ice with 50 μl FACS buffer containing 2 μg/ml R-Phycoerythrin-conjugated Streptavidin (eBiosciences) or 1 μg/ml R-Phycoerythrin-conjugated anti-HIS IgG (Abcam). Cell were washed 2× with FACS buffer and fixed for 10 minutes in 200 μl PBS w/2% PFA prior to acquisition.

Binder	Kd [1] [nM]	koff [1] [s⁻¹]	kon [1] [M⁻¹ s⁻¹]	Kd [2] [nM]	IC50 [3] [nM]
B1	13.5	0.00422	312000	0.74	1.6
B2	14.7	0.0152	1.04e+06	0.19	0.4
B3	43.3	0.071	1.64e+06	0.97	1.7
B4	863	0.0023	2670	78	
B5	21.3	0.0279	1.31e+06	39.4	28.6
B6	15.2	0.0196	1.29e+06	35	55.8
B7	18.9	0.0234	1.24e+06	40.6	41.3
B8	2.27	0.122	5.35e+07		4.1
B9	2.46	0.0275	1.12e+07		4.5
